Laboratory results: article PMC9727766 (bioRxiv, 2022)

What was measured:
[1] = target: SARS-CoV-2 S protein, C-terminally truncated, Omicron BA.4/BA.5, on 293T cells (SARS-CoV-2 Omicron BA.4/BA.5, strain); assay: flow cytometry on cells
[2] = target: SARS-CoV-2 S protein, C-terminally truncated, Omicron BA.1, on 293T cells (SARS-CoV-2 Omicron BA.1 (B.1.1.529), …, strain); assay: flow cytometry on cells

B1: fp.006 monoclonal antibody (IgG) (antibody, V domains shown)
VH: EVQLVESGGGVVQPGGSLRLSCAASGFNFNNYALHWVRQAPGKGLEWVAIISYEARNKKYGVSVMGRFSISRDNSKSIMYLEMNSLRVEDTGVYYCARDLFLSDYDRSGYDPTRGGFDHWGQGTLVTVSS
VL: EIVMTQSPATLSVSPGERATLSCRASQSVSSSLAWYQHRFGQAPRLLISGASTRATGIPGRFSGSGSGTEFTLTISSLQSEDVAVYYCQQYGDWPLVTFGGGTKVEIK
**Q.** How did the “fold increase of binding with soluble ACE2” value [1] turn out when B1 was run?
**A.** 8.2 fold

**Q.** What about the “fold increase of binding with soluble ACE2” value [2] of the same binder?
**A.** 5.3 fold
